Positions count from the first letter of the chain named. Numbers in names are those of the source. One block for each binder: values may come before it.
Key:
[1] = target: T1, human C5 (human, UniProt P01031 19-1676); assay: cell-based or functional assay
[2] = target: T2, African green monkey C5 (African green monkey); assay: cell-based or functional assay
[3] = target: T3, human C5 R885H-mmh (human, UniProt P01031 19-1676); assay: cell-based or functional assay
[4] = target: T4, human C5 R885C-mmh (human, UniProt P01031 19-1676); assay: cell-based or functional assay
[5] = target: T1, human C5; assay: cell-based or functional assay; remark: listed apart in the source
[6] = target: T1, human C5; assay: SPR (Biacore), mAb captured, dissociation of human C5 at pH7.4 vs pH6.0, 37°C
Method in brief: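 Anti-C5 mAbs (human IgG4 Fc) captured on an amine-coupled mouse anti-human Fc surface; recombinant C5 dissociation followed by Biacore T200 in PBS-T (0.01M phosphate, 0.15M NaCl, 0.05% Tween-20) at pH7.4 or pH6.0. Dissociative half-life (t½) calculated from kd.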

[7] = target: T1, human C5; assay: cell-based or functional assay; remark: listed apart in the source
[8] = target: T2, African green monkey C5; assay: cell-based or functional assay; remark: listed apart in the source
[9] = target: T3, human C5 R885H-mmh; assay: cell-based or functional assay; remark: listed apart in the source
[10] = target: T4, human C5 R885C-mmh; assay: cell-based or functional assay; remark: listed apart in the source
[11] = target: T1, human C5; assay: cell-based or functional assay; remark: listed apart in the source
[12] = target: T2, African green monkey C5; assay: cell-based or functional assay; remark: listed apart in the source
[13] = target: Cynomolgus monkey C5 (cynomolgus monkey, UniProt A0A2K5U1T1 19-1676); assay: cell-based or functional assay
[14] = target: T5, monkey C5-mmh (monkey, UniProt P01031 19-1676 (human entry), limits assumed); assay: SPR (Biacore), mAb captured, dissociation of monkey C5 at pH7.4 vs pH6.0, 25°C
T5 construct: recombinant, with C-terminal myc-myc-hexahistidine tag
T5 chain: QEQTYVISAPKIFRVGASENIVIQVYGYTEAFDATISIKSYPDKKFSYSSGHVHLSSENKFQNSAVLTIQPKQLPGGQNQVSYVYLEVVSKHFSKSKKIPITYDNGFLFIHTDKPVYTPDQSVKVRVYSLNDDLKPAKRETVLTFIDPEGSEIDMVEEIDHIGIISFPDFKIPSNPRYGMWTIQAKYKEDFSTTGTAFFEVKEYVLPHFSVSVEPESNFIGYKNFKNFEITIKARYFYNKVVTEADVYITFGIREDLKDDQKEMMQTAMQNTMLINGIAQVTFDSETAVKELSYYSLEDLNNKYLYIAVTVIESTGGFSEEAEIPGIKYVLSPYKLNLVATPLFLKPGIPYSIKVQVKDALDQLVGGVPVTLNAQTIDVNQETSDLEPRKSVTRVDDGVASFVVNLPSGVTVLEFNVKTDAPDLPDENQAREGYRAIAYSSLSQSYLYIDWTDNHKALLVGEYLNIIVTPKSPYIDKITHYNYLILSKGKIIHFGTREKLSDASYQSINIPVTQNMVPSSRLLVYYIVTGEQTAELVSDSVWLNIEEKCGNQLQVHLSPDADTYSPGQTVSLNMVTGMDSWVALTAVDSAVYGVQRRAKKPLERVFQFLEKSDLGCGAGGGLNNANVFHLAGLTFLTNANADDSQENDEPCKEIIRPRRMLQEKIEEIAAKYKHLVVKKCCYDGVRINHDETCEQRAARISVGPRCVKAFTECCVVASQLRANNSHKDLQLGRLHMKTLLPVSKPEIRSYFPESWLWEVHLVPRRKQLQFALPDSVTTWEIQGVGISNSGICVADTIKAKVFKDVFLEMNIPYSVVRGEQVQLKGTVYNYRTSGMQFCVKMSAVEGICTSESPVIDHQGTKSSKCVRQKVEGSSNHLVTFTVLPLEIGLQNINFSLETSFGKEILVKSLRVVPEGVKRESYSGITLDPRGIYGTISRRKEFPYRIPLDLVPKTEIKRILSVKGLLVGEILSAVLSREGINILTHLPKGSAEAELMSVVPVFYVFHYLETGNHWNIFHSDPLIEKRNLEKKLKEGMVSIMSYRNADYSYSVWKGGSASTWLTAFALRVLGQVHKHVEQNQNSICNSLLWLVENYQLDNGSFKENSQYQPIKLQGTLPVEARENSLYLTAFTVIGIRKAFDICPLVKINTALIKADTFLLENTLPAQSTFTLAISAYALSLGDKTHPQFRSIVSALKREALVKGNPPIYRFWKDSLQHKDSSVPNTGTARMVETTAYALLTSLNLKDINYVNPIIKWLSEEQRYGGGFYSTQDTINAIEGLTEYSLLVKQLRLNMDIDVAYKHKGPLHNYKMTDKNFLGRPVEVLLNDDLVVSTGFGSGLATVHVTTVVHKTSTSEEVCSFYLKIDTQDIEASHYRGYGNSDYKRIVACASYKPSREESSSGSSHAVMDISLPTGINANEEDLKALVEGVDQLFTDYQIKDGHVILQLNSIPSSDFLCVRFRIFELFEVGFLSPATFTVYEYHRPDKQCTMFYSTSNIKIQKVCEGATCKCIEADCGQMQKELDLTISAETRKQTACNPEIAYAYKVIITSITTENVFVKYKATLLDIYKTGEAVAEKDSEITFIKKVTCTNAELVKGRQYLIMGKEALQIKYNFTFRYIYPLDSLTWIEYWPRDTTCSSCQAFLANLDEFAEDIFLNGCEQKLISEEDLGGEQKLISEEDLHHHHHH

[15] = target: T5, monkey C5-mmh; assay: SPR (Biacore), mAb captured, dissociation of monkey C5 at pH7.4 vs pH6.0, 37°C

IC50, inhibition of CDC of Daudi cells, 1.66% human serum [7]: 2.2 nM | IC50, inhibition of CDC of Daudi cells, 1.66% African Green monkey serum [8]: 5.2 nM | IC50, inhibition of CDC of Daudi cells, C5 depleted human serum and 6.6 nM C5 Variant R885H [9]: 4.2 nM | IC50, inhibition of CDC of Daudi cells, C5 depleted human serum and 6.6 nM C5 Variant R885C [10]: > 20 nM | t½ Ratio pH7.4/pH6.0 [6]: 0.9 | t½ Ratio pH7.4/pH6.0 [14]: 3.6 | t½ Ratio pH7.4/pH6.0 [15]: 0.4
B4: H4H12175P (antibody, human IgG4, V domains shown)
VH: EVQLVESGGGVVQPGGSLRLSCAASGFTFNDYAMHWVRQAPGKGLEWVSLISGDGGNTYYADSVKGRLTISRDNSKNSLYLQMNSLRTEDTALYYCAKDKGWNFGYFDLWGRGTLVTVSS
VL: DIQMTQSPSSLSTSVGDRVTITCRASQNIDTYLNWYQQKPGKAPKLLIYDASSLQSGVPSRFSGSGSGTDFTLTITSLQPEDFATYYCQQNDNILHPLTFGGGTKVEIK
notes: H4H: human IgG4 Fc with S108P hinge mutation
Human AP % Max Inhibition, hemolysis assay, NHS [11]: 80.2% | Human AP IC50, hemolysis assay, NHS [11]: 20 nM | Human CP % Max Inhibition, hemolysis assay, NHS [11]: 98% | Human CP IC50, hemolysis assay, NHS [11]: 2.36 nM | AGM AP % Max Inhibition, hemolysis assay, 5% serum [12]: 17.4% | AGM CP % Max Inhibition, hemolysis assay, 5% serum [12]: 84.5% | AGM Serum AP IC50, hemolysis assay, 5% serum [12]: 98.5 nM | AGM Serum CP IC50, hemolysis assay, 5% serum [12]: 118 nM | Cyno AP % Max Inhibition, hemolysis assay, 5% serum [13]: 98.1% | Cyno CP % Max Inhibition, hemolysis assay, 5% serum [13]: 96.7% | Cyno Serum AP IC50, hemolysis assay, 5% serum [13]: 8.05 nM | Cyno Serum CP IC50, hemolysis assay, 5% serum [13]: 10.9 nM

IC50, inhibition of CDC of Daudi cells, 1.66% human serum [7]: 1.9 nM | IC50, inhibition of CDC of Daudi cells, 1.66% African Green monkey serum [8]: 3.3 nM | IC50, inhibition of CDC of Daudi cells, C5 depleted human serum and 6.6 nM C5 Variant R885H [9]: 1.6 nM | IC50, inhibition of CDC of Daudi cells, C5 depleted human serum and 6.6 nM C5 Variant R885C [10]: 0.65 nM | t½ Ratio pH7.4/pH6.0 [6]: 3.7 | t½ Ratio pH7.4/pH6.0 [14]: 2.1 | t½ Ratio pH7.4/pH6.0 [15]: 4.7
B5: H4H12171P (antibody, human IgG4, V domains shown)
VH: EVQLVESGGGVVRPGGSLRLSCAASGFTFDEYGMTWVRQVPGKGLEWVSGITWNGGFTDYTDSVKGRFTSSRDNAKNSLYLQMNSLRAEDTALYYCARDGYSSSWGAYDIWGQGTMVTVSS
VL: DIQMTQSPSSLSASVGDRVTITCRASQSISTYLNWYQQKPGKAPKLLIYAASSLQSGVPLRFSGSGSGTDFTLTISSLQPEDFASYFCQQSYSTPYTFGQGTKLEIK
notes: as for B4
Human AP % Max Inhibition, hemolysis assay, NHS [11]: 42% | Human AP IC50, hemolysis assay, NHS [11]: 15.5 nM | Human CP % Max Inhibition, hemolysis assay, NHS [11]: 94.9% | Human CP IC50, hemolysis assay, NHS [11]: 2.33 nM | AGM AP % Max Inhibition, hemolysis assay, 5% serum [12]: 69.7% | AGM CP % Max Inhibition, hemolysis assay, 5% serum [12]: 17.8% | AGM Serum AP IC50, hemolysis assay, 5% serum [12]: 23.3 nM | Cyno AP % Max Inhibition, hemolysis assay, 5% serum [13]: 98.8% | Cyno CP % Max Inhibition, hemolysis assay, 5% serum [13]: 92.9% | Cyno Serum AP IC50, hemolysis assay, 5% serum [13]: 7.2 nM | Cyno Serum CP IC50, hemolysis assay, 5% serum [13]: 8.7 nM

Second part, the binder before the results:

B1: H4H12166P2 (antibody, human IgG4, V domains shown)
VH: QVQLQESGPGLVKPSETLSLTCTVSGDSVSSSYWTWIRQPPGKGLEWIGYIYYSGSSNYNPSLKSRATISVDTSKNQFSLKLSSVTAADTAVYYCAREGNVDTTMIFDYWGQGTLVTVSS
VL: AIQMTQSPSSLSASVGDRVTITCRASQGIRNDLGWYQQKPGKAPKLLIYAASSLQSGVPSRFAGRGSGTDFTLTISSLQPEDFATYYCHQDFNYPWTFGQGTKVEIK
notes: histidine-mutated CDR variant of H4H12166P; human IgG4 (S108P)
IC50, inhibition of CDC of Daudi cells, 1.66% human serum, 2 nM anti-CD20 antibody [1]: 3.7 nM | IC50, inhibition of CDC of Daudi cells, 1.66% African Green monkey serum, 10 nM anti-CD20 antibody [2]: 9.7 nM | IC50, inhibition of CDC of Daudi cells, C5 depleted human serum and 6.6 nM C5 Variant R885H, 7 nM anti-CD20 antibody [3]: 1.7 nM | IC50, inhibition of CDC of Daudi cells, C5 depleted human serum and 6.6 nM C5 Variant R885C, 30 nM anti-CD20 antibody [4]: 1.2 nM | Human AP % Max Inhibition, hemolysis assay, 5% NHS [5]: 81.3% | Human AP IC50, hemolysis assay, 5% NHS [5]: 47.8 nM | Human CP % Max Inhibition, hemolysis assay, 5% NHS [5]: 98.2% | Human CP IC50, hemolysis assay, 5% NHS [5]: 15.9 nM | t½ Ratio pH7.4/pH6.0 [6]: 7.3

B2: H4H12166P3 (antibody, human IgG4, V domains shown)
VH: B1 VH with G99H
VL: B1 VL with H89L
IC50, inhibition of CDC of Daudi cells, 1.66% African Green monkey serum, 10 nM anti-CD20 antibody [2]: > 30 nM | Max % Inhibition of CDC of Daudi cells, 1.66% African Green monkey serum, 10 nM anti-CD20 antibody [2]: 64% | IC50, inhibition of CDC of Daudi cells, C5 depleted human serum and 6.6 nM C5 Variant R885H, 7 nM anti-CD20 antibody [3]: 2.9 nM | IC50, inhibition of CDC of Daudi cells, C5 depleted human serum and 6.6 nM C5 Variant R885C, 30 nM anti-CD20 antibody [4]: 1.7 nM

B3: H4H12164P (antibody, human IgG4, V domains shown)
VH: EVQLVESGGGLVRSGGSLRLSCAASGFTFNRYAMTWVRQAPGKGLEWVSAISGSGSSTYYTDSVKGRFTISRDNSKNSVDLQMHSLRVEDTAIYYCARGTTVTTGYGMDVWGQGTTVTVSS
VL: DIQMTQSPSSLSASVGDRVTFTCQASQDITNSLNWYQQKPGRAPKLLIYDASYLKAGVPSRFSGSGSGTDFTFTISSLQPEDIATYYCQQYDDLPYTFGQGTKLEIK
notes: as for B4
IC50, inhibition of CDC of Daudi cells, 1.66% human serum [7]: 2.4 nM | IC50, inhibition of CDC of Daudi cells, 1.66% African Green monkey serum [8]: 5.8 nM | IC50, inhibition of CDC of Daudi cells, C5 depleted human serum and 6.6 nM C5 Variant R885H [9]: 1.8 nM | IC50, inhibition of CDC of Daudi cells, C5 depleted human serum and 6.6 nM C5 Variant R885C [10]: 0.82 nM | Human AP % Max Inhibition, hemolysis assay, NHS [11]: 69.7% | Human AP IC50, hemolysis assay, NHS [11]: 14.5 nM | Human CP % Max Inhibition, hemolysis assay, NHS [11]: 95.9% | Human CP IC50, hemolysis assay, NHS [11]: 2.1 nM | AGM AP % Max Inhibition, hemolysis assay, 5% serum [12]: 15.6% | AGM CP % Max Inhibition, hemolysis assay, 5% serum [12]: 85.8% | AGM Serum AP IC50, hemolysis assay, 5% serum [12]: 178 nM | AGM Serum CP IC50, hemolysis assay, 5% serum [12]: 247 nM | Cyno AP % Max Inhibition, hemolysis assay, 5% serum [13]: 98.7% | Cyno CP % Max Inhibition, hemolysis assay, 5% serum [13]: 94.7% | Cyno Serum AP IC50, hemolysis assay, 5% serum [13]: 9.1 nM | Cyno Serum CP IC50, hemolysis assay, 5% serum [13]: 19.6 nM | t½ Ratio pH7.4/pH6.0 [6]: ≤ 0.1 | t½ Ratio pH7.4/pH6.0 [14]: 2.9 | t½ Ratio pH7.4/pH6.0 [15]: 1.1
